Reference: the supplement of paper PMC10567573

B1: WDFY1 (parent)
chain: LLIPKEDGVITASEDRTIRVWLKR
B2: SLC2A12 (parent)
chain: LTLVFFVQITGQPNILFYASTVLK

Variants of: B1
Test: protein stability index of a GFP-peptide fusion (GPS, HEK-293T) (PSI 1-6); higher = more stable
Details: c terminus: a fixed tail appended
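Note: lentivirally expressed fusions sorted by FACS into six bins by GFP to DsRed ratio, PSI derived from sequencing read proportions per bin multiplied by bin number.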

Protein stability index: each site, then its substitutions
R16: T 1.65
I3: W 1.87, D 3.09, N 3.77
V9: P 3.22, A 2.58
D15: V 1.37
P4: T 1.89, Y 1.51, L 1.79, N 2.19, S 2.54, C 2.28, V 2.67
G8: I 1.41, T 2.55, L 1.03
S13: L 2.15, D 2.53, T 2.2
E14: Y 1.32, G 2.29
D7: N 1.58, E 3.03
V20: H 2.1
L22: F 2.15, K 2.91, I 2.56
R19: V 2.21, G 1.8
L1: Y 2.55
T11: W 1.72, A 2.43, I 2.15, Q 1.72
L2: F 1.25, I 2.22, M 2.27, K 3.31, V 2.69
I18: G 2.93, L 2.29, K 1.74
A12: S 1.71, I 1.92, Q 2.18
R24: G 3.37, I 3.32
K5: R 1.44
W21: F 3.61, A 3.07, D 3.87
K23: F 3.36, V 2.28, L 2.44, I 2.1, R 2.74
I10: S 2.07, N 2.54

Variants of: B2
Test: as above
Details: c terminus: a fixed tail appended

Protein stability index: each site, then its substitutions
Q8: G 2.93, E 3.4, N 3.92, S 2.51, T 3.53, H 3.26, L 2.46, K 3.48, A 4.06, F 3.87, P 2.51, I 3.94, C 3.19
L3: T 4.46, W 4.1, V 4.79, P 3.17, Y 2.54, M 3.15, R 2.29, S 3.34, I 3.43, N 2.42, Q 3.25, D 2.9, G 2.17, A 3.64, H 2.75, E 4.85
F6: G 3.11, T 2.35, Q 4.18, D 2.69, V 3.64, H 3.02, A 2.9, W 2.85, L 2.26
A19: L 3.37, R 2.55, T 2.42, K 2.5, M 2.4, V 2.66
I9: F 2.63, L 5.05, E 4.04, W 3.12, N 3.06, A 2.57, S 3.01, R 3.42, Q 1.99, H 4.79, M 3.4, G 2.45, T 3.18
S20: G 3.23, P 2.92, I 4.31, N 2.84, A 2.52, Y 3.22, C 2.27, M 2.78, F 4.03, Q 2.48, K 3.97, E 3.34, T 4.03, W 4.76
Y18: E 2.04, K 2.6, M 2.05, S 3.38, D 2.93, F 3.63, N 1.59, P 4.25, I 2.47, L 3.04, A 2.49, T 2.31
V7: A 2.03, W 2.61, D 3.27, M 4.19, H 3.64, S 2.3, Y 3.38, K 1.59
N14: T 3.06, P 2.34, G 3.5, C 1.99, S 2.14, Q 3.83, L 3.78, F 3.6, R 3.96, A 2.73, I 4.38, M 2.01, D 3.93, Y 1.5, H 2.96, E 1.76
P13: I 2.72, K 2.67, H 3.43, E 3.73, T 2.59, R 3.44, G 5.6, S 3.1, Y 2.2, Q 2.05, A 3.85, V 3.35
L1: V 2.75, T 3.79, R 1.8, I 2.33, Y 2.85, C 2.29, S 3.18, G 4.08, P 2.54, M 3.03, W 2.65, A 2.8, D 2.23, H 2.7, N 1.69, E 2.27, K 2.96, F 4.63
F5: W 3.59, P 3.32, I 2.45, S 1.66, Y 2.52, E 2.7, N 2.65, R 3.67, V 2.47, H 1.93, Q 2.13, T 1.96
G11: C 2.58, N 3.96, P 3.28, L 2.33, Y 3.04, F 2.92, V 2.45, S 2.87, T 2.29, M 3.38, Q 4.06, A 2.87, D 3.42
Q12: Y 2.33, I 2.73, D 2.94, M 3.94, L 3.8, S 2.21, N 1.94, V 2.91, R 2.64, K 3.74, E 2.25, C 2.83, T 3.22
T2: F 2.44, K 3.54, G 2.15, D 2.45, W 2.96, E 1.69, M 3.56, Y 3.04, A 2.61, S 3.26, N 3.71, I 4.67, C 2.24, P 2.78, L 3.88
F17: N 2.66, W 3, T 3.28, Y 2.63, K 3.38, A 1.86, S 2.69, Q 3.16, M 2.52, H 3.19
V4: C 3.38, I 2.99, P 2.67, M 2.09, W 2.98, G 4, Q 3.56, K 2.64, Y 2.54, N 2.73, S 2.54, E 1.44, H 3.15, D 3.68, L 2.65
T10: E 2.11, D 2.75, H 2.17, I 3.61, N 1.88, Q 1.31, F 2.92, S 1.67, Y 3.46, K 3.77, A 3.42, P 5.16
L16: T 3.51, G 2.02, P 4.12, M 3.19, C 2.98, D 2.58, A 4.05, H 1.6, R 3.61
I15: S 4.88, W 2.63, C 2.48, A 2.99, E 2.91, F 3.04, Y 3.83, L 4.71, K 2.67, Q 2.46
T21: S 3.13, N 3.31, Q 2.97, E 2.46, F 3.22, D 3.9, P 3.23, W 3.97, I 3.71, M 3.09, L 2.38, C 3.33
V22: R 3.38, F 2.78, Q 4.34, Y 3.57, L 2.28, A 4.16, I 3.81, C 2.2, N 2.78, P 3.9, S 1.93, D 3.37
L23: N 2.74, H 2.38, E 2.83, Q 3.05, M 3.81
